Measured values published in patent publication US12252531B2, “Methods of screening for high-affinity, isoform-selective TGFβ1 inhibitors” (Scholar Rock, Inc., priority 2018, dated 2025).
Substitutions are numbered along the chain they refer to. Values belong to the molecule of their own block, whether it stands above or below them.

How the values were obtained:
[1] = in vivo, cited from earlier work
[2] = biological target: Matrix-associated proTGFb1 (hLTBP1, hLTBP3); test: BLI (OCTET), average over matrix-associated complexes; assay type: binding, human; settings: average KD of (B) and (C), read-out: (D) ECM AVRG
Source text: (§1) Column (A) of the table lists monoclonal antibodies with discrete amino acid sequences. […] Columns (B), (D), (E) and (F) provide affinities of each of the listed antibodies, measured in KD. […] Average KD values of (B) and (C) are shown in the corresponding column (D), which collectively represents affinities of the antibodies to ECM- or matrix-associated proTGFβ1 complexes. Similarly, Average KD values of (E) and (F) are shown in the corresponding column (G), which collectively represents affinities of the antibodies to cell-surface or cell-associated proTGFβ1 complexes. Finally, relative ratios between the average KD values from columns (D) and (G) are expressed as “fold bias” in column (H). Thus, the greater the number of column (H) is, the greater bias exists for the particular antibody, when comparing binding preferences of the antibody for matrix-associated complexes and cell-surface complexes. This is one way of quantitatively representing and comparing inherent bias of antibodies to their target complexes. Such analyses may be useful in guiding the selection process for a candidate antibody for particular therapeutic use.
(§2) The concept of “uniformity” or lack of bias is further illustrated in Table 8. Average KD values between the two matrix-associated and cell-associated complexes are calculated, respectively (see columns (D) and (G)). These average KD values can then be used to ask whether bias in binding activities exists between complexes associated with matrix vs. complexes associated with cell surface (e.g., immune cells). Bias may be expressed as “fold-difference”in the average KD values, as illustrated in Table 8.

[3] = tested on: Cell-associated proTGFb1 (hGARP, hLRRC33); test: BLI (OCTET), average over cell-associated complexes; assay type: binding, human; settings: average KD of (E) and (F), read-out: (G) Cell AVRG
Source text: as §1, §2

[4] = tested on: LTBP1-proTGFβ1, LTBP3-proTGFβ1, GARP-proTGFβ1 and LRRC33-proTGFβ1 complexes; test: BLI (OCTET), binding profile and bias across the four complexes; design: species or system human; settings: ratio of average KD cell-associated / matrix-associated
Source text: as §1, §2

[5] = biological target: Matrix-associated proTGFβ1 (hLTBP1, hLTBP3); test: MSD-SET, average over matrix-associated complexes; assay type: binding, human; settings: average of (B) and (C), read-out: (D) ECM AVRG
Source text: as §1
(§3) Solution equilibrium titration (“SET”) is an assay whereby binding between two molecules (such as an antigen and an antibody that binds the antigen) can be measured at equilibrium in a solution. For example, Meso-Scale Discovery (“MSD”)-based SET, or MSD-SET, is a useful mode of determining dissociation constants for particularly high-affinity protein-protein interactions at equilibrium (see, for example: Ducata et al. (2015) J Biomolecular Screening 20(10): 1256-1267). The SET-based assays are particularly useful for determining KD values of antibodies with sub-nanomolar (e.g., picomolar) affinities.

[6] = tested on: Cell-associated proTGFβ1 (hGARP, hLRRC33); test: MSD-SET, average over cell-associated complexes; assay type: binding, human; settings: average of (E) and (F), read-out: (G) Cell AVRG
Source text: as §1, §3

[7] = tested on: hLTBP1-proTGFβ1, hLTBP3-proTGFβ1, hGARP-proTGFβ1 and hLRRC33-proTGFβ1; test: MSD-SET, binding profile and bias across the four human LLCs; settings: ratio of average KD cell-associated / matrix-associated
Source text: Solution Equilibrium Titration (SET): The SET is an assay whereby binding between two molecules (such as an antigen and an antibody that binds the antigen) can be measured at equilibrium in a solution. For example, Meso-Scale Discovery (“MSD”)-based SET, or MSD-SET, is a useful mode of determining dissociation constants for particularly high-affinity protein-protein interactions at equilibrium, such as picomolar-affinity antibodies binding to their antigens (see, for example: Ducata et al. (2015) J Biomolecular Screening 20(10): 1256-1267). The SET-based assays are particularly useful for determining KD values of antibodies with sub-nanomolar (e.g., picomolar) affinities.
as §3
For solution equilibrium titration-based binding assays, protein complexes that comprise one of the presenting molecules such as those shown above may be employed as antigen (presenting molecule-TGFβ1 complex, or an LLC). Test antibodies are allowed to form antigen-antibody complex in solution. Antigen-antibody reaction mixtures are incubated to allow an equilibrium to be reached; the amount of the antigen-antibody complex present in the assay reactions can be measured by suitable means well known in the art. As compared to BLI-based assays, SET-based assays are less affected by on/off rates of the antigen-antibody complex, allowing sensitive detection of very high affinity interactions.

Molecule: GC1008: human analog of 1D11, pan-TGFβ antibody
Exposure: DN Cmax ([1]; human): DN Cmax~(350 ng/mL)mg
previously reported adverse events (CTCAE grade) [1]: leukocytosis (grade 3), fatigue (grade 3), hypoxia (grade 3), asystole (grade 5), leukopenia (grade 1), recurrent, transient, tender erythematous, nodular skin lesions, suppurative dermatitis, and herpes zoster

B1: Ab21: proTGFβ1 antibody; VH SEQ ID NO: 129, VL SEQ ID NO: 15 (antibody, V domains shown)
VH: EVQLVESGGGLVQPGGSLRLSCAASGFTFSSFSMDWVRQAPGKGLEWVSYISPDASTIYYADSVKGRFTISRDNAKNSLYLQMNSLRAEDTAVYYCARGVLDYGDMLDPWGQGTLVTVSS
VL: DIQMTQSPSSLSASVGDRVTITCQASQDITNYLNWYQQKPGKAPKLLIYDASNLETGVPSRFSGSGSGTDFTFTISSLQPEDIATYYCQQADNHPPWTFGGGTKVEIK
Kd [2]: 0.246 nM
Kd [3]: 0.644 nM
(H) G/D (fold bias) [4]: 2.613 fold

B6: Ab28: proTGFβ1 antibody; VH SEQ ID NO: 136, VL SEQ ID NO: 15 (antibody, V domains shown)
VH: B1 VH with A97V
VL: B1 VL
Kd [2]: 0.328 nM
Kd [3]: 0.603 nM
(H) G/D (fold bias) [4]: 1.838 fold

B7: Ab32: proTGFβ1 antibody; VH SEQ ID NO: 140, VL SEQ ID NO: 15 (antibody, V domains shown)
VH: B1 VH with D35N, D54S, S56D, S78T, L101W, Y103M
VL: B1 VL
Kd [2]: 0.242 nM
Kd [3]: 0.597 nM
(H) G/D (fold bias) [4]: 2.467 fold
Kd [5]: 0.032 nM
Kd [6]: 0.051 nM
(H) G/D (fold bias) [7]: 1.60 fold

B9: Ab22: proTGFβ1 antibody; VH SEQ ID NO: 130, VL SEQ ID NO: 15 (antibody, V domains shown)
VH: B1 VH with S30G, D35N, S52H, P53S
VL: B1 VL
Kd [2]: 0.324 nM
Kd [3]: 0.695 nM
(H) G/D (fold bias) [4]: 2.147 fold
Kd [5]: 0.042 nM
Kd [6]: 0.114 nM
(H) G/D (fold bias) [7]: 2.71 fold

B10: Ab23: proTGFβ1 antibody; VH SEQ ID NO: 131, VL SEQ ID NO: 15 (antibody, V domains shown)
VH: B1 VH with D35N, D54S, S56D, S78T
VL: B1 VL
Kd [2]: 0.443 nM
Kd [3]: 0.897 nM
(H) G/D (fold bias) [4]: 2.028 fold

B11: Ab31: proTGFβ1 antibody; VH SEQ ID NO: 139, VL SEQ ID NO: 15 (antibody, V domains shown)
VH: B1 VH with S78T, G99A
VL: B1 VL
Kd [2]: 0.208 nM
Kd [3]: 0.495 nM
(H) G/D (fold bias) [4]: 2.376 fold
Kd [5]: 0.017 nM
Kd [6]: 0.058 nM
(H) G/D (fold bias) [7]: 3.41 fold

B12: Ab24: proTGFβ1 antibody; VH SEQ ID NO: 132, VL SEQ ID NO: 15 (antibody, V domains shown)
VH: B1 VH with G16R, S33A, D35Y
VL: B1 VL
Kd [2]: 0.222 nM
Kd [3]: 0.537 nM
(H) G/D (fold bias) [4]: 2.421 fold
Kd [5]: 0.023 nM
Kd [6]: 0.1 nM
(H) G/D (fold bias) [7]: 4.35 fold

B13: Ab30: proTGFβ1 antibody; VH SEQ ID NO: 138, VL SEQ ID NO: 15 (antibody, V domains shown)
VH: B1 VH with V100T
VL: B1 VL
Kd [2]: 0.296 nM
Kd [3]: 0.684 nM
(H) G/D (fold bias) [4]: 2.307 fold
Kd [5]: 0.029 nM
Kd [6]: 0.081 nM
(H) G/D (fold bias) [7]: 2.80 fold

The next lines start with results.

Kd [2]: 0.145 nM
(H) G/D (fold bias) [4]: 2.083 fold
Kd [5]: 0.009 nM
(H) G/D (fold bias) [7]: 3.00 fold
B2: Ab33: proTGFβ1 antibody; VH SEQ ID NO: 141, VL SEQ ID NO: 15 (antibody, V domains shown)
VH: B1 VH with D35N, D54S, S56D, S78T, R98H
VL: B1 VL
Kd [3]: 0.302 nM
Kd [6]: 0.027 nM

Kd [2]: 0.208 nM
(H) G/D (fold bias) [4]: 1.738 fold
B3: Ab27: proTGFβ1 antibody; VH SEQ ID NO: 135, VL SEQ ID NO: 15 (antibody, V domains shown)
VH: B1 VH with S31F, F32Y, S33A, D35N
VL: B1 VL
Kd [3]: 0.361 nM

Kd [2]: 0.155 nM
(H) G/D (fold bias) [4]: 1.965 fold
(H) G/D (fold bias) [7]: 2.00 fold
B4: Ab29: proTGFβ1 antibody; VH SEQ ID NO: 137, VL SEQ ID NO: 15 (antibody, V domains shown)
VH: B1 VH with G16R, S33A, D35N, D62G, A97V, G99A
VL: B1 VL
Kd [3]: 0.304 nM
Kd [6]: 0.024 nM

Kd [2]: 0.184 nM
(H) G/D (fold bias) [4]: 2.431 fold
B5: Ab25: proTGFβ1 antibody; VH SEQ ID NO: 133, VL SEQ ID NO: 15 (antibody, V domains shown)
VH: B1 VH with S30G
VL: B1 VL
Kd [3]: 0.449 nM

Kd [2]: 0.197 nM
(H) G/D (fold bias) [4]: 2.500 fold
Kd [5]: 0.026 nM
(H) G/D (fold bias) [7]: 2.77 fold
B8: Ab26: proTGFβ1 antibody; VH SEQ ID NO: 134, VL SEQ ID NO: 15 (antibody, V domains shown)
VH: B1 VH with S78T
VL: B1 VL
Kd [3]: 0.492 nM
Kd [6]: 0.072 nM
